# Ends that are not written are not given here.
# What was measured:
# seabream Oxtrb = seabream Oxtrb (Sparus aurata, UniProt R9WVY7); assay: Activation of seabream Oxtrb in transfected HEK293T cells (pCRE-luc / pSRE-luc reporters, Fluo-4 AM Ca2+); type: cell-based, gilthead seabream (Sparus aurata)
# [1] = test system: X. laevis oocytes expressing the seabream Oxtrb and Aqp1aa; settings: not told
substance,measurement,setting,value
CYISNCPIG-NH2 (ends and bridges not checked) [Oxt],pCRE-mediated luciferase activity (cAMP),seabream Oxtrb; HEK293T cells expressing Oxtrb,did not induce measurable increases
same,pSRE-induced luciferase activity (PKC activation),"seabream Oxtrb; HEK293T cells expressing Oxtrb, 10^-12 to 10^-5 M",concentration-dependent increase
same,intracellular Ca2+ concentration ([Ca2+]i),"seabream Oxtrb; HEK293T cells expressing Oxtrb, Fluo-4 AM",concentration-dependent increase
same,EC50,"seabream Oxtrb; Oxt on Oxtrb, HEK293T, read-out: approximate EC50 on cognate receptor",~10 nM
same,oocyte permeability (P f) and channel accumulation in the plasma membrane,[1],reduction of oocyte permeability

# Reference: PMC10454913, “Neurohypophysial and paracrine vasopressinergic signaling regulates aquaporin trafficking to hydrate marine teleost oocytes” (Frontiers in Endocrinology, 2023)
